Laboratory results as given in PMC2196876.

Molecular target: epitope-tagged full-length hVam6p (HA–hVam6p and Myc–hVam6p) (human)
Experiment: sucrose gradient sedimentation velocity with immunoprecipitation of fractions

stoichiometry N: 3
Substance: epitope-tagged full-length hVam6p (HA–hVam6p and Myc–hVam6p) (natural protein)
